For experiment [1], the target named is T1, human CD4, membrane-bound on cells (HPB-ALL cells, blood/PBMC CD4+ T cells, assay target cells) (human, UniProt P01730 26-458).
T1 construct: whole, on cells; Target on human HPB-ALL T-leukemic cells, human blood CD4+ T lymphocytes and CD4+ indicator cells of the neutralisation assays; also called CD4 receptor; surface CD4
In words: saturation binding to HPB-ALL cells on ice 1 h; free antibody by ELISA, bound by subtraction, curve fit; mean of 3. Background: In an ELISA, binding on a coated surface is turned into a signal by an enzyme label.
Protocol: (§1) The resultant saturating free-vs.-bound concentration profiles were analyzed on SigmaPlot by curve-fitting based on the equation, [B]=Bmax·{[F]/([F]+Kd)}, where the respective [B] and [F] stand for the bound and free concentrations.
(§2) The binding study was conducted at cold and/or under 0.05% azide to avoid a potential endocytosis of the ligand-receptor complexes. Incubation at room temperature or 37° C. could allow a reaction plateau to be reached sooner. […] The supernatants were collected for determination by ELISA of the free drug concentrations, and the bound fractions were obtained by subtraction from the total.

Experiment [2] addresses T1, human CD4, membrane-bound on cells …. Kind of experiment: FACS, fresh blood CD4+ T cells, mean of six subjects; bound dB4 detected by goat anti-hIgG-FITC. (In flow cytometry, cells or beads pass a laser one at a time.)
Description: (§3) The samples were calibrated with reference beads for fluorescence reading.
For experiment [3] the target is unchanged. In words: FACS, fresh blood CD4+ T cells, mean of six subjects; free CD4 sites left by dB4 detected by dB4C7-Alexa (250 ng/mL).
For experiment [4] the target is unchanged. Kind of experiment: FACS direct binding to blood CD4+ T cells of one individual, 4°C 1 h (printed as IC50 here, as EC50 in paragraph 342).
Description: The MFI values reflect the degree of receptor occupancy, in particular when these values are normalized and expressed as % MFI.
The target is the same in experiment [5]. In words: FACS direct binding to HPB-ALL cells, on ice 1 h, goat F(ab)2 anti-huIgG Fc-FITC; EC50 by % MFI, exp. 3.
Protocol: (§4) On V-bottomed microplates, aliquots of 2×10⁵ cells in 0.1 mL per well were added, centrifuged, and liquid discarded. […] This step was repeated one more time. The cells from the three incubations (passages) were investigated. […] The cells were washed once and the liquid discarded after centrifugation. To each well, aliquots of 200 μL of binding buffer were added and transferred to microdilution tubes for flow cytometric analysis. The binding intensity (mean fluorescence intensity, MFI), based on an inlet of 5,000 cells per sample, was read on FACS.
(§5) The absolute MFI values were also normalized to % MFI for purpose of between-passage comparison.
The target is the same in experiment [6]. In words: saturation binding to HPB-ALL cells on ice 1 h; free antibody by ELISA, bound by subtraction, curve fit; exp. 1.
Protocol: as §1, §2
For experiment [7] the target is unchanged. Kind of experiment: competition FACS on HPB-ALL cells; inhibition of dB4-Alexa (250 ng/mL).
Protocol: On V-bottomed microplates, aliquots of 2×10⁵ cells in 0.1 mL per well were added, centrifuged, and liquid discarded. […] The cells were washed once and the liquid discarded after centrifugation. To each well, aliquots of 200 μL of binding buffer were added and transferred to microdilution tubes for flow cytometric analysis. The binding intensity (mean fluorescence intensity, MFI), based on an inlet of 5,000 cells per sample, was read on FACS.
The target is the same in experiment [8]. In words: FACS, fresh blood CD4+ T cells of subject M2; bound dB4 detected by goat anti-hIgG-FITC.
Description: as §3
For experiment [9] the target is unchanged. Kind of experiment: FACS direct binding to HPB-ALL cells, on ice 1 h, goat F(ab)2 anti-huIgG Fc-FITC; EC50 by % MFI, exp. 1.
Protocol: as §4, §5
The target is the same in experiment [10]. In words: cell-based or functional assay.
Experiment [11] has the same target. Kind of experiment: FACS direct binding to HPB-ALL cells, on ice 1 h, goat F(ab)2 anti-huIgG Fc-FITC; EC50 by % MFI, mean of 3.
Protocol: as §4, §5
Experiment [12] shares this target. Kind of experiment: FACS, fresh blood CD4+ T cells of subject F3; bound dB4 detected by goat anti-hIgG-FITC.
Description: as §3
For experiment [13] the target is unchanged. Kind of experiment: FACS, fresh blood CD4+ T cells of subject M1; free CD4 sites left by dB4 detected by dB4C7-Alexa (250 ng/mL).
Experiment [14] shares this target. Kind of experiment: FACS, fresh blood CD4+ T cells of subject M3; free CD4 sites left by dB4 detected by dB4C7-Alexa (250 ng/mL).
A further experiment concerns the target T2, recombinant soluble CD4 (UniProt P01730 26-390, limits assumed).
T2 construct: also called sCD4; rsCD4
Kind of experiment: competition ELISA on coated sCD4/p2704a mixture; inhibition of B4-biotin (10 µg/mL).

Here are results for 1 molecule from patent US20170369576A1 (UBI US, published 2017).

Values joined by “and” are separate entries in the source; they are usually repeats but may differ in a detail not shown here. Equal values may be shown once.

B1: mAb dB4C7 (human deimmunized, Fc-aglycosylated IgG1 derived from murine mAb B4, expressed by clone 7) (antibody, V domains shown)
VH: QVQLVQSGPELKKPGASVKVSCKASGYTFTDYVIHWVKQATGQGLEWIGEIYPGSGSAYSNAKFKDRVTMTADKSSNTAYMELSSLTSDDTAVYFCARRGNGTGFAYWGQGTLVTVSS
VL: DIVLTQSPASLAVSLGQRATITCKAGQSVDYDGDSYMNWYQQKPGQPPKLLIYVASNLESGIPARFSGSGSGTDFTLNIHPVEENDAATYYCQQSYKDPLTFGQGTKLEIKR
modifications: N-glycosylated at Asn101 in the Fv; Fc N-glycosylation site removed (N298H)
notes: treated as one molecule; also called deimmunized B4
Take B1: the Kd in experiment [1] is 0.0085 µg/mL and 0.056 nM; in [6] it was 0.057 nM and 0.0086 µg/mL. The EC50 in [2] was 0.0041 mg/L; in [3], 0.0047 mg/L; in experiment [4] it was 0.023 mg/L; in [5], 0.0407 mg/L; in experiment [8] it was 0.0042 mg/L; in [9], 0.0424 mg/L. Besides, the EC50 came out at 0.0429 mg/L in experiment [11], 0.0037 mg/L in [12], 0.0048 mg/L in experiment [13] and 0.0033 mg/L in [14]. Moreover, the IC50 in experiment [7] is 0.197 µg/mL and 1.8 nM; in the experiment with recombinant soluble CD4, 8.19 mg/L. In addition, the “IC50 of HIV entry inhibition, pseudotype virus 92TH594 (R5/X4), U87-CD4+/CCR5+/CXCR4+ cells” value in experiment [10] was found to be 0.05 mg/L. The “IC50 of HIV entry inhibition, pseudotype virus HXB2 (X4), U87-CD4+/CCR5+/CXCR4+ cells” value in [10] turned out to be 0.4 mg/L.

For orientation: Kd means the free concentration of one partner at which half of the binding sites on the other are occupied at equilibrium, for simple one-to-one binding. Read a high Kd as a looser complex. What is called EC50 is the concentration at which the effect is half-maximal. A low value points to greater potency. As usually defined, the IC50 is the point on the concentration scale where inhibition reaches its midpoint.
